# Results from patent US9533026B2, “Polypeptide compounds for inhibiting angiogenesis and tumor growth” (VasGene Therapeutics, Inc., priority 2004, dated 2017).
# “Also recorded” adds a separate entry of the source.
# Columns and labels:
# B16 (melanoma) = experiment: B16 melanoma tumor in mice, soluble EphB4; assay type: in vivo, mouse
# Description: (§1) Tumors were injected premixed with Matrigel plus growth factors and soluble EphB4 subcutaneously. After 10 to 14 days, the mice were injected intravenously with FITC-lectin (green) to assess blood vessel perfusion.
# (§2) 30 athymic nude mice, BALB/c (nu/nu), were each injected with 1×10^6 B16 melanoma cells with 0.1 ml PBS mixed with 0.1 ml matrigel or 1.5×10^6 SCC15 cells resuspended in 200 μl of DMEM serum-free medium and injected subcutaneously on day 0 on the right shoulder region of mice. Proteins were injected intravenously or subcutaneously, around the tumor beginning on day 1 at a loading dose of 4 μg/mg, with weekly injections of 2 ug/mg. (10 μg/g, 50 μg/kg/day), and at 2 weeks post-inoculation. Mice are sacrificed on Day 14. Control mice received PBS 50 μl each day.
# MCF-7 (breast carcinoma) = experiment: MCF-7 tumor in mice, soluble EphB4; assay type: in vivo, mouse
# Description: as §1
# SCC15 tumors = experiment: SCC15 tumor growth and histology in nude mice, soluble EphB4; assay type: in vivo, mouse; conditions: for SCC15 tumor growth: Balb/C nu/nu mice
# Description: The same model was used to determine the effects of soluble EphB4 in vivo. SCC15 tumors implanted subcutaneously, pre-incubated with matrigel and with or w/o growth factors, as well as implanted sc alone, and mice treated sc or ip daily with 1-5 μg of soluble EphB4 were carried out.
# Subcutaneously inject logarithmically growing SCC15, head and neck squamous cell carcinoma cell line, at 5×10^6 cell density; with or without EphB4 ECD in the presence or absence of human bFGF, into athymic Balb/c nude mice, along with Matrigel (BD Bioscience) synthetic basement membrane (1:1 v/v), and examine tumors within 2 weeks. […] There was no difference in body weight between the groups. Immunohistochemical examination of cross-sections of resected tumors and TUNEL-positive apoptosis or necrosis, CD34 immunostaining, and BrdU proliferation rate will be performed, after deparaffinized, rehydrated, and quenched for endogenous peroxidase activity, and after 10 min permeabilization with proteinase K. Quantitative assessment of vascular densities will also be performed. Local intratumoral delivery or IV delivery of EphB4 ECD will also be performed twice a week.
# as §2
# All animals were treated under protocols approved by the institutional animal care committees. Cancer cells (5×10^6) were subcutaneously inoculated into the dorsal skin of nude mice. When the tumor had grown to a size of about 100 mm^3 (usually it took 1[…]2 days), sEphB4 was either intraperitoneally or subcutaneously injected once/day, and tumorigenesis was monitored for 2 weeks. Tumor volume was calculated according to the formula a^2xb, where a and b are the smallest and largest diameters, respectively. A Student's t test was used to compare tumor volumes, with P<0.05 being considered significant.
# Tumors were fixed in 4% formaldehyde, embedded in paraffin, sectioned by 5 μm, and stained with hematoxylin[…]eosin. Vessel density was semi-quantitated using a computer-based image analyzer (five fields per section from three mice in each group).
# human endothelial cells = experiment: Endothelial cell chemotaxis / migration (Boyden chamber); assay type: cell-based; conditions: for chemotaxis of human endothelial cells: umbilical cord and hepatic AECs or VECs, growth factor stimuli
# Description: Migration is assessed using the 48-well Boyden chamber and 8 μm pore size collagen-coated (10 μg/ml rat tail collagen; Collaborative Laboratories) polycarbonate filters (Osmonics, Inc.). The bottom chamber wells receive 27-29 μl of DMEM medium alone (baseline) or medium containing chemo-attractant (bFGF, VEGF or Swiss 3T3 cell conditioned medium). The top chambers receive 45 μl of HUVEC cell suspension (1×10^6 cells/ml) prepared in DMEM+1% BSA with or without test compound. After 5 h incubation at 37° C., the membrane is rinsed in PBS, fixed and stained in Diff-Quick solutions. The filter is placed on a glass slide with the migrated cells facing down and cells on top are removed using a Kimwipe. The testing is performed in 4-6 replicates and five fields are counted from each well. Negative unstimulated control values are subtracted from stimulated control and drug treated values and data is plotted as mean migrated cell±S.D. IC50 is calculated from the plotted data.
# Chemotaxis of HUVECs to VEGF was assessed using a modified Boyden chamber, transwell membrane filter inserts in 24 well plates, 6.5 mm diam, 8 μm pore size, 10 μm thick matrigel coated, polycarbonate membranes (BD Biosciences). The cell suspensions of HUVECs (2×10^5 cells/ml) in 200 μl of EBM were seeded in the upper chamber and the soluble EphB4 protein were added simultaneously with stimulant (VEGF or bFGF) to the lower compartment of the chamber and their migration across a polycarbonate filter in response to 10-20 ng/ml of VEGF with or without 100 nM-1 μM test compound was investigated. After incubation for 4-24 h at 37° C., the upper surface of the filter was scraped with swab and filters were fixed and stained with Diff Quick. Ten random fields at 200× mag were counted and the results expressed as mean # per field. Negative unstimulated control values were subtracted from stimulated control and protein treated sample values and the data was plotted as mean migrated cell±S.D. IC50 was calculated from the plotted data.
# [1] = test system: bFGF-induced corneal neovascularization; experiment: Mouse corneal micropocket assay; assay type: in vivo; conditions: mouse cornea, day 7 of implantation
# Excerpt: To further investigate the antiangiogenic activity of soluble EphB4 in vivo, we studied the inhibitory effect of administration of soluble EphB4 on neovascularization in the mouse cornea induced by bFGF. Hydron Pellets implanted into corneal micropocket could induce angiogenesis, in the presence of growth factors, in a typically avascular area. The angiogenesis response in mice cornea was moderate, the appearance of vascular buds was delayed and the new capillaries were sparse and grew slowly.
# Mouse corneal micropocket assay was performed according to that detailed by Kenyon et al., 1996. Briefly, hydron pellets (polyhydroxyethylmethacrylate [polyHEMA], Interferon Sciences, New Brunswick, N.J., U.S.A.) containing either 90 ng of bFGF (R&D) or 180 ng of VEGF (R&D Systems, Minneapolis, Minn., U.S.A.) and 40 μg of sucrose aluminium sulfate (Sigma) were prepared. Using an operating microscope, a stromal linear keratotomy was made with a surgical blade (Bard-Parker no. 15) parallel to the insertion of the lateral rectus muscle in an anesthetized animal. An intrastromal micropocket was dissected using a modified von Graefe knife (2^••30 mm). […] The difference in pellet location for each growth factor was determined to be necessary given the relatively weaker angiogenic stimulation of VEGF in this model. […]
Molecule,"tumor angiogenesis (B16 (melanoma); B16, premixed with Matrigel plus growth factors, 10 to 14 days)","tumor angiogenesis (MCF-7 (breast carcinoma); MCF-7, premixed with Matrigel plus growth factors, 10 to 14 days)",SCC15 tumor growth (SCC15 tumors),"tumor angiogenesis (SCC15 tumors; SCC15, premixed with Matrigel plus growth factors, 10 to 14 days, FITC-lectin)","Tumor volumes versus vehicle groups (SCC15 tumors; co-injected with Matrigel, presence and absence of growth factor, within 2 weeks)","Fibrin deposition in and around blood vessels (SCC15 tumors; inner viable rim and central necrotic core, Masson's Trichrome)","effects on the endothelium in normal tissues (SCC15 tumors; lungs, liver and kidneys)","Necrosis, percentage of tumor section area (SCC15 tumors; treated vs control, p<0.02)",body weight (SCC15 tumors; tumor-bearing mice),"tolerability in vivo (SCC15 tumors; tumor-bearing mice, general well-being)","body weight (SCC15 tumors; tumor-bearing mice, listed as EphB4 ECD)","bFGF and VEGF-induced migration (human endothelial cells; HUV/AEC, Boyden chamber, dose-dependent)",corneal neovascularization induced by bFGF [1],in vivo tumor growth (B16 (melanoma); B16 co-injected with matrigel and growth factors),in vivo tumor growth (MCF-7 (breast carcinoma); MCF-7 co-injected with matrigel and growth factors),chemotaxis of human endothelial cells (human endothelial cells),chemotaxis of human endothelial cells (human endothelial cells; listed as EphB4v3)
soluble EphB4: soluble EphB4 extracellular domain protein; exact construct not stated at the results (protein) LEETLLNTKLETADLKWVTFPQVDGQWEELSGLDEEQHSVRTYEVCDVQRAPGQAHWLRTGWVPRRGAVHVYATLRFTMLECLSLPRAGRSCKETFTVFYYESDADTATALTPAWMENPYIKVDTVAAEHLTRKRPGAEATGKVNVKTLRLGPLSKAGFYLAFQDQGACMALLSLHLFYKKCAQLTVNLTRFPETVPRELVVPVAGSCVVDAVPAPGPSPSLYCREDGQWAEQPVTGCSCAPGFEAAEGNTKCRACAQGTFKPLSGEGSCQPCPANSHSNTIGSAVCQCRVGYFRARTDPRGAPCTTPPSAPRSVVSRLNGSSLHLEWSAPLESGGREDLTYALRCRECRPGGSCAPCGGDLTFDPGPRDLVEPWVVVRGLRPDFTYTFEVTALNGVSSLATGPVPFEPVNVTTDREVPPAVSDIRVTRSSPSSLSLAWAVPRAPSGAVLDYEVKYHEKGAEGPSSVRFLKTSENRAELRGLKRGASYLVQVRARSEAGYGPFGQEHHSQTQLDESEGWREQLA,marked inhibition,marked inhibition,inhibits; also recorded: reduced growth rate,marked inhibition,three-fold smaller,increased,no such effects,more extensive,no significant effect,well tolerated,no difference,significantly inhibited,markedly inhibited,–,–,–,–
"B4ECv3: soluble extracellular domain derivative of human EphB4, SEQ ID NO:1 (protein, Recombinant B4ECv3 protein) MELRVLLCWASLAAALEETLLNTKLETADLKWVTFPQVDGQWEELSGLDEEQHSVRTYEVCEVQRAPGQAHWLRTGWVPRRGAVHVYATLRFTMLECLSLPRAGRSCKETFTVFYYESDADTATALTPAWMENPYIKVDTVAAEHLTRKRPGAEATGKVNVKTLRLGPLSKAGFYLAFQDQGACMALLSLHLFYKKCAQLTVNLTRFPETVPRELVVPVAGSCVVDAVPAPGPSPSLYCREDGQWAEQPVTGCSCAPGFEAAEGNTKCRACAQGTFKPLSGEGSCQPCPANSHSNTIGSAVCQCRVGYFRARTDPRGAPCTTPPSAPRSVVSRLNGSSLHLEWSAPLESGGREDLTYALRCRECRPGGSCAPCGGDLTFDPGPRDLVEPWVVVRGLRPDFTYTFEVTALNGVSSLATGPVPFEPVNVTTDREVPPAVSDIRVTRSSPSSLSLAWAVPRAPSGAWLDYEVKYHEKGAEGPSSVRFLKTSENRAELRGLKRGASYLVQVRARSEAGYGPFGQEHHSQTQLDESEGWREQGSKRAILQIEGKPIPNPLLGLDSTRTGHHHHHH",–,–,inhibits,–,–,–,–,–,–,–,–,–,inhibits,inhibits,inhibits,blocked chemotaxis,inhibits chemotaxis
